Columns and labels:
Type in all cases: cell-based
human A2aR = human A2aR (Homo sapiens, UniProt P29274); assay: In vitro blocking activity of purified humanized anti-A2aR antibodies and SMIs (cAMP-Glo, adenosine or NECA); conditions: purified antibodies
Description: The activity of A2aR is mediated by Gas protein which activates adenylyl cyclase, resulting in the synthesis of intracellular cAMP. The level of cAMP correlates with the respective adenosine (agonist) level. cAMP can be detected using a variety of commercial cAMP assay kit.
Briefly, clear flat bottom 96 well tissue culture plate (Fisher Scientific) was coated with 50 μl per well of 50 µg/ml poly-D-lysine (Gibco, Cat. A3890401) solution at 4° C. overnight. After 3 washes with sterile endotoxin free water, the coated culture plate was left uncovered in a biosafety cabinet to dry. Freshly thawed A2aR-overexpressing HEK293 cell (BPS Bioscience) were seeded on poly-D-lysine coated plates at 10^4/well in 100 μl culture medium for 24 hours in 37° C., 5% CO2 incubator. After wash with warmed PBS once, one hundred microliters (100 μl) starvation medium (MEM (Hyclone Cat. SH30024.01)+2% charcoal stripped serum (Thermo Fisher, Cat. A3382101)+1% Penicillin/Streptomycin) were added for overnight culture in an incubator at 37° C. and 5% CO2. […] Plates were read to obtain Relative Light Unit (RLU) on SpectraMax 5 reader (Molecular Device). Data were analyzed using Prism software.

[1] = test system: human PBMCs (CD4 T, CD8 T, NK cells); assay: Restoration of IFN-γ and IL-2 production of NECA-suppressed T cells and NK cells (intracellular cytokine staining); conditions: for % of cells IFNγ+, CD4 T cells / % of cells IFNγ+, CD8 T cells / % of cells IFNγ+, NK cells / % of cells IL-2+, CD4 T cells / % of cells IL-2+, CD8 T cells: NECA, test substance 1 μg/ml; for restored production of IFN-γ and IL-2 by NECA-suppressed CD8 T cell: compared with AB928, CPI-444 and AZD4635; for restored production of IFN-γ and IL-2 by NECA-suppressed NK cells: compared with the tested small molecule inhibitors
Description: (§1) Two hundred thousand (2×10^5) human peripheral blood mononuclear cells (PBMCs) human PBMC in complete IMDM medium were aliquoted into each well in a 96-well plate and the cells in the 96-well plate were pre-incubated with antibodies or small molecule inhibitors at indicated concentration for 90 minutes, followed by addition of T cell activator anti-CD3/28 dynabeads (Gibco, Cat #11132D) at ratio of 1:4 (Beads: PBMC, v/v) and NECA (DiscoverX, Cat #92-1191, final concentration […]). Cells were cultured in an incubator at 37° C., 5% CO2 for 24 hours. Cells were then collected and stimulated with anti-CD3/28 dynabeads in the presence of GolgiPlug™ Protein Transport Inhibitor (BD Biosciences, Cat #555028) according to manufacturer's manual for 4 hours. Thereafter, cells were incubated with human TruStain FcX block (Biolegend, Cat #422302) and True-Stain monocyte blocker (Biolegend, Cat #426103) for 15 minutes according the manufacturer's manual, and cells were then stained with surface markers PE-anti-CD4 (Biolegend, Cat #300550), PerCP-cy5.5-anti-CD8 (Biolegend, Cat #301032), APC/cy7-anti-CD3 (Biolegend, Cat #300426) and PE/cy7-anti-CD56 (Biolegend, Cat #362509), PE/cy7-anti-CD56 (Biolegend, Cat #362509), BV711-anti-CD25 (Biolegend, Cat #302636) and BV605-anti-CD69 (Biolegend, Cat #31938 After wash with FACS buffer, cells were stained with BV421-anti-IFN-γ (BD Bioscience, Cat #562988) and APC anti-IL-2 (BD Bioscience, cat #551383) using intracellular cytokine staining kit (BD Biosciences, cat #555028) following manufacturer's instruction. Stained samples were analyzed on FACSAria III machine. Data were analyzed using Flowjo software.

[2] = test system: human PBMCs (CD4 and CD8 T cells); assay: Restoration of CD25 and CD69 activation markers on NECA-suppressed CD4 and CD8 T cells; conditions: test substance 1 μg/ml
Description: as §1

human A2aR, sequence (P29274 whole entry): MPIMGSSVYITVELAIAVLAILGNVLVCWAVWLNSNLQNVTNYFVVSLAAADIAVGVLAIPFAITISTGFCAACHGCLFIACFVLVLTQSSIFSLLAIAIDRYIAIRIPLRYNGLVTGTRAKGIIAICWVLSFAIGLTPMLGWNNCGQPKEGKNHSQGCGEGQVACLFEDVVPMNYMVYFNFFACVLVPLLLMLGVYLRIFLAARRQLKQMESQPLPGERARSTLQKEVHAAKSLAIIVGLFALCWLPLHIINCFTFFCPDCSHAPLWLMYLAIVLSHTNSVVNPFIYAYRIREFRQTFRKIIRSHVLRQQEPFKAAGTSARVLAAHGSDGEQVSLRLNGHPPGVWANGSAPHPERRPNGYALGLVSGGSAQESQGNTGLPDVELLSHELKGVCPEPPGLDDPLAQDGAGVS

B1: Hu3F6-H3/Hu3F6-L5: humanized anti-A2aR IgG1 FES antibody; HCVR SEQ ID NO:60, LCVR SEQ ID NO:80 (antibody, V domains shown)
VH: EVQLVQSGAEVKKPGASVKVSCKTSGFAFTSYWMNWVRQAPGQGLEWIGRIDPSDSEAHYHHKFWGRATLTVDTSSSTVYMELSSLRSEDTAVYYCLRSLYGKGDYWGHGTTVTVSS
VL: DVVMTQTPLSLSVTPGQPASISCRSSQSLVHRNGNTYLEWYLQKPGQSPQLLIYKVSNRFSGVPDRFSGSGSGTDFTLKISRVEAEDVGVYYCYQGSHVPLTFGGGTKVEIK
blocking of the activities of human A2aR expressed on cell surface (RLU, FIG. 1A, 1B) (human A2aR): blocked the activities of human A2aR expressed on cell surface | % of cells IFNγ+, CD4 T cells [1]: 4.35% | % of cells IFNγ+, CD8 T cells [1]: 14.1% | % of cells IFNγ+, NK cells [1]: 17.8% | % of cells IL-2+, CD4 T cells [1]: 13.4% | % of cells IL-2+, CD8 T cells [1]: 3.29% | restored production of IFN-γ and IL-2 by NECA-suppressed CD8 T cell [1]: restored production of IFN-γ and IL-2 by NECA-suppressed CD8 T cell, with higher potency | restored production of IFN-γ and IL-2 by NECA-suppressed NK cells [1]: restored production of IFN-γ and IL-2 by NECA-suppressed NK cells, with a potency higher | % of cells CD25+, CD4 T cells [2]: 61.5% | % of cells CD25+, CD8 T cells [2]: 36% | % of cells CD69+, CD4 T cells [2]: 57.9% | % of cells CD69+, CD8 T cells [2]: 54.5%

B2: Hu3F6-H5/Hu3F6-L5: humanized anti-A2aR IgG1 FES antibody; HCVR SEQ ID NO:62, LCVR SEQ ID NO:80 (antibody, V domains shown)
VH: EVQLVQSGAEVKKPGASVKVSCKTSGFAFTSYWMNWVRQAPGQGLEWIGRIDPSDSEAHYAHKFWGRATLTVDKSSSTVYMELSSLRSEDTAVYYCLRSLYGKGDYWGHGTTVTVSS
VL: DVVMTQTPLSLSVTPGQPASISCRSSQSLVHRNGNTYLEWYLQKPGQSPQLLIYKVSNRFSGVPDRFSGSGSGTDFTLKISRVEAEDVGVYYCYQGSHVPLTFGGGTKVEIK
blocking of the activities of human A2aR expressed on cell surface (RLU, FIG. 1A, 1B) (human A2aR): blocked the activities of human A2aR expressed on cell surface | % of cells IFNγ+, CD4 T cells [1]: 4.29% | % of cells IFNγ+, CD8 T cells [1]: 14.8% | % of cells IFNγ+, NK cells [1]: 16.6% | % of cells IL-2+, CD4 T cells [1]: 13.2% | % of cells IL-2+, CD8 T cells [1]: 2.98% | restored production of IFN-γ and IL-2 by NECA-suppressed CD8 T cell [1]: restored production of IFN-γ and IL-2 by NECA-suppressed CD8 T cell, with higher potency | restored production of IFN-γ and IL-2 by NECA-suppressed NK cells [1]: restored production of IFN-γ and IL-2 by NECA-suppressed NK cells, with a potency higher | % of cells CD25+, CD4 T cells [2]: 62.5% | % of cells CD25+, CD8 T cells [2]: 35.8% | % of cells CD69+, CD4 T cells [2]: 58.1% | % of cells CD69+, CD8 T cells [2]: 56.1%
